Experimental data published in patent US20120177664A1 (IMMUNAS PHARMA, published 2012).

These binders were tested against T1, A beta oligomer (synthetic A beta1-40, HCl form, 0.1 mg/ml in PBS, incubated at 37 degrees C for one hour) (UniProt P05067 672-711) (assay: SPR (Biacore 3000)).
T1 construct: domain: A beta1-40; non-fibrous multimer of the peptide; also called A beta 1-40 oligomer
Procedure: The analysis was carried out by Surface Plasmon Resonance (SPR) using Biacore 3000 (GE Healthcare Sciences).

Row | Binder | Kd [nM] | koff [s⁻¹] | kon [M⁻¹ s⁻¹]
1 | IR-083 antibody (antibody, mouse IgG2b, V domains shown, mouse IgG2b) VH: DVQLVESGGGLVQPGGSRKLSCAASGFTFSRFGMYWVRQAPEKGLEWVAYISSGSSTIYYADIVKGRFTISRDNPKNTLFLQMTSLRSEDTAMYYCARRGYYEAMDYWGQGTSVTVSS VL: DVLMTQTPLSLPVSLGDQASISCRSSQSIVHSNGNTYLEWYLQKPGQSPKLLIYKVSNRFSGVPDRFSGSGSGTDFTLKISRVEADDLGVYYCFQGSHVPPTFGGGTKLEIK | 699 | 0.431 | 617000
2 | IR-154 antibody (antibody, V domains shown, mouse IgG2a) VH: DVQLVESGGGLVQPGGSRKLSCAASGFSFSSFGMHWVRQAPEKGLEWVAYISSGRSTIYYADTVKGRFTISRDNPKNTLFLQMTSLRSEDTAMYYCARLRGNLDYAMDYWGQGTSVTVSS VL: DVVMTQTPLSLPVSLGDQASISCRSSQSLVHSNGNTYLHWYLQKPGQSPKLLIYKVSNRFSGVPDRFSGSGSGTDFTLKISRVEAEDLGVYFCSQSTHVPFTFGSGTKLEIK | 1050 | 0.41 | 389000
3 | IR-155 antibody (antibody, V domains shown, mouse IgG2a) VH: DVQLVESGGGLVQPGGSRKLSCAASGFTFSSFGMHWVRQAPEKGLEWVAYISSGSSTIYYADTVKGRFTISRDNPKNTLFLQMTSLRSEDTAMYYCARLDGYRGDYWGQGTTLTVSS VL: DVVMTQTPLSLPVSLGDQASISCRSSQSLVHSNGNTYLHWYLQKPGQSPKLLIYKVSNRFSGVPDRFSGSGSGTDFTLKISRVEAEDLGVYFCSQSTHVPLTFGSGTKLEIK | 1050 | 0.37 | 351000
4 | IR-107 antibody (antibody, mouse IgG2b, V domains shown, mouse IgG2b) VH: DVQLVESGGGLVQPGGSRKLSCAASGFTFSSFGMHWVRQAPEKGLEWVAYISSGSSTIYYADTVKGRFTISRDNPKNTLFLQMTSLRSEDTAMYYCARYGYAMDYWGQGTSVTVSS VL: DVLMTQTPLSLPVSLGDQASISCRSSQSIVHSNGNTYLEWYLQKPGQSPKLLIYKVSNRFSGVPDRFSGSGSGTDFTLKISRVEAEDLGVYYCFQGSHVPPTFGGGTKLEIK | 339 | 0.1 | 295000
5 | IR-079 antibody (antibody, mouse IgG2b, V domains shown, mouse IgG2b) VH: DVQLVESGGGLVQPGGSRKLSCAASGFTFSSFGMHWVRQAPEKGLEWVAYISSGSSTIYYADTVKGRFTISRDNPKNTLFLQMTSLRSEDTAMYYCARYGTLYYYAMDYWGQGTSVTVSS VL: DVLMTQTPLSLPVSLGDQASISCRSSQSIVHSNGNTYLEWYLQKPGQSPKLLIYKVSNRFSGVPDRFSGSGSGTDFTLKISRVEAEDLGVYYCFQGSHVPPTFGGGTKLEIK | 1050 | 0.297 | 282000
6 | IR-110 antibody (antibody, mouse IgG2b, V domains shown, mouse IgG2b) VH: DVQLVESGGGLVQPGGSRKLSCAASGFTFSSFGMHWVRQAPEKGLEWVAYISSGSSTIYYADTVKGRFTISRDNPKNTLFLQMTSLRSEDTAMYYCASYGNYGAYWGQGTLVTVSA VL: DVLMTQTPLSLPVSLGDQASISCRSSQSIVHSNGNTYLEWYLQKPGQSPKLLIYKVSNRFSGVPDRFSGSGSGTDFTLKISRVEAEDLGVYYCFQGSHVPPTFGGGTKLEIK | 177 | 0.0719 | 407000
7 | IR-117 antibody (antibody, mouse IgG2b, V domains shown, mouse IgG2b) VH: not shown VL: DVVMTQTPLSLPVSLGDQASISCRSSQSLVHSNGNTYLHWYLQKPGQSPKLLIYKVSNRFSGVPDRFSGSGSGTDFTLKISRVEAEDLGVYFCSQSTHVPLTFGAGTKLELK | 921 | 0.0668 | 72500
8 | IR-150 antibody (antibody, mouse IgG2b, V domains shown, mouse IgG2b) VH: not shown VL: DVVMTQTPLSLPVSLGDQASISCRSSQSLVHSNGNTYLHWYLQKPGQSPKLLIYKVSNRFSGVPDRFSGSGSGTDFTLKISRVEAEDLGVYFCSQSTHVPLTFGAGTKLELK | 517 | 0.124 | 240000
9 | IR-135 antibody (antibody, V domains shown, mouse IgG2a) VH: QVQLQQSGAELAKPGASVKMSCKASGYTFTSYWMHWVKQRPGQGLEWIGYINPSTGYTEYNQKFKDKATLTADKSSSTAYMQLSSLTSEDSAVYYCDYYGSSYGYFDVWGAGTTVTVSS VL: DVVMTQTPLSLPVSLGDQASISCRSSQSLVHSNGNTYLHWYLQKPGQSPKLLIYKVSNRFSGVPDRFSGSGSGTDFTLKISRVEAEDLGVFFCSQSTHVPLTFGAGTKLELK | 1290 | 0.116 | 89900

Stronger by Kd, values ahead:

Row | Kd [nM] | koff [s⁻¹] | kon [M⁻¹ s⁻¹] | Binder
10 | 36.3 | 0.0138 | 380000 | IR-098 antibody (antibody, mouse IgG2b, V domains shown, mouse IgG2b) VH: not shown VL: DVLMTQTPLSLPVSLGDQASISCRSSQSIVHSNGNTYLEWYLQKPGQSPKLLIYKVSNRFSGVPDRFSGSGSGTDFTLKISRVEAEDLGVYYCFQGSHVPLTFGAGTKLELK
11 | 58.8 | 0.00227 | 38600 | IR-152 antibody (antibody, mouse IgG2b, V domains shown, mouse IgG2b) VH: DVQLVESGGGLVQPGGSRKLSCAASGFTFSSFGMHWVRQAPEKGLEWVAYISSGSSTIYYADTVKGRFTISRDNPKNTLFLQMTSLRSEDTAMYYCARGGHVGAMDYWGQGTSVTVSS VL: DVVMTQTPLSLPVSLGDQASISCRSSQSLVHSNGNTYLHWYLQKPGQSPKLLIYKVSNRFSGVPDRFSGSGSGTDFTLKISRVEAEDLGVYFCSQSTHVPWTFGGGTKLEIK
12 | 15.7 | 0.00303 | 193000 | IR-097 antibody (antibody, mouse IgG2b, V domains shown, mouse IgG2b) VH: not shown VL: DVLMTQTPLSLPVSLGDQASISCRSSQSIVHSNGNTYLEWYLQKPGQSPKLLIYKVSNRFSGVPDRFSGSGSGTDFTLKISRVEAEDLGVYYCFQGSHVPLTFGAGTKLELK
13 | 41.1 | 0.00376 | 91400 | IR-112 antibody (antibody, mouse IgG2a, V domains shown, mouse IgG2a) VH: QVTLKESGPGILKPSQTLSLTCSFSGFSLSTSGMGVGWIRQPSGKGLEWLAHIWWDDDKYYNPSLKSQLTISKDTSRNQVFLKITSVDTADTATYYCARRSMITTNDYFDYWGQGTTLTVSS VL: DVLMTQTPLSLPVSLGDQASISCRSSQSIVHSNGNTYLEWYLQKPGQSPKLLIYKVSNRFSGVPDRFSGSGSGTDFTLKISRVEAEDLGVYYCFQGSHVPPTFGGGTKLEIK
14 | 11.8 | 0.00296 | 250000 | IR-108 antibody (antibody, mouse IgG2a, V domains shown, mouse IgG2a) VH: QVTLKESGPGILKPSQTLSLTCSFSGFSLSTSGMGVGWIRQPSGKGLEWLAHIWWDDDKYYNPSLKSQLTISKDTSRNQVFLKITSVDTADTATYYCARRGLRRGDYFDYWGQGTTLTVSS VL: DVLMTQTPLSLPVSLGDQASISCRSSQSIVHSNGNTYLEWYLQKPGQSPKLLIYKVSNRFSGVPDRFSGSGSGTDFTLKISRVEAEDLGVYYCFQGSHVPLTFGAGTKLELK
15 | 59.4 | 0.0215 | 362000 | IR-094 antibody (antibody, mouse IgG2b, V domains shown, mouse IgG2b) VH: EVKLEESGGGLVQPGGSMKLSCVASGFTFSNYWMNWVRQSPEKGLEWVAEIRLKSNNYATHYAESVKGRFTISRDDSKSSVYLQMNNLRAEDTGIYYCTRRGPSGYDRAWFAYWGQGTLVTVSA VL: not shown
16 | 22.1 | 0.00517 | 234000 | IR-132 antibody (antibody, mouse IgG2b, V domains shown, mouse IgG2b) VH: DVQLVESGGGLVQPGGSRKLSCAASGFTFSSFGMHWVRQAPEKGLEWVAYISSGSSTIYYADTVKGRFTISRDNPKNTLFLQMTSLRSEDTAMYYCARDGNYVGWFAYWGQGTLVTVSA VL: DVVMTQTPLSLPVSLGDQASISCRSSQSLVHSNGNTYLHWYLQKPGQSPKLLIYKVSNRFSGVPDRFSGSGSGTDFTLKISRVEAEDLGVYFCSQSTHVPLTFGAGTKLELK
17 | 27.5 | 0.00153 | 55700 | IR-118 antibody (antibody, mouse IgG2a, V domains shown, mouse IgG2a) VH: QVQLKESGPGLVAPSQSLSITCTISGFSLTSYGVHWVRQPPGKGLEWLVVIWSDGSTTYNSALKSRLSISKDNSKSQLFLKMNSLQTDDTAMYYCARHSYRYGLMDYWGQGTSVTVSS VL: DVVMTQTPLSLPVSLGDQASISCRSSQSLVHSNGNTYLHWYLQKPGQSPKLLIYKVSNRFSGVPDRFSGSGSGTDFTLKISRVEAEDLGVYFCSQSTHVPLTFGAGTKLELK
18 | 50.6 | 0.00165 | 32600 | IR-139 antibody (antibody, mouse IgG2b, V domains shown, mouse IgG2b) VH: DVQLVESGGGLVQPGGSRKLSCAASGFTFSSFGMHWVRQAPEKGLEWVAYISSGSSTIYYADTVKGRFTISRDNPKNTLFLQMTSLRSEDTAMYYCARDEGYFDYWGQGTTLTVSS VL: DVVMTQTPLSLPVSLGDQASISCRSSQSLVHSNGNTYLHWYLQKPGQSPKLLIYKVSNRFSGVPDRFSGSGSGTDFTLKISRVEAEDLGVYFCSQSTHVPLTFGAGTKLELK
